We go through 2 proteins from paper PMC8244254 (Current Research in Structural Biology, 2020).

This data set deals with the molecule itself. The data set is described as follows: crystal structure; co-crystallisation by hanging-drop vapour diffusion at 20 °C; MOA variant 5 mg/ml pre-mixed with the trisaccharide Galα1,3(Fucα1,2)Gal (1:20) and the heptapeptide at 1:10 MOA:peptide molar ratio; crystals grew over 2-4 weeks.

Changes are numbered by the printed parent chain. Names and notes keep the numbering of the source.

B1: Marasmius oreades agglutinin (MOA) variant C215A (enzyme)
chain: MSLRRGIYHIENAGVPSAIDLKDGSSSDGTPIVGWQFTPDTINWHQLWLAEPIPNVADTFTLCNLFSGTYMDLYNGSSEAGTAVNGWQGTAFTTNPHQLWTIKKSSDGTSYKIQNYGSKTFVDLVNGDSSDGAKIAGWTGTWDEGNPHQKWYFNRMSVSSAEAQAAIARNPHIHGTYRGYILDGEYLVLPNATFTQIWKDSGLPGSKWREQIYDADDFAIAMKAAVGKWGADSWKANGFAIFCGVMLGVNKAGDAAHAYNFTLTKDHADIVFFEPQNGGYLNDIGYDSYMAFY
notes: Marasmius oreades agglutinin (MOA), from the cDNA for wild-type MOA in vector MOApT7-LO; the final model holds residues 2-293, no density for the first methionine; One protomer in the asymmetric unit; the second subunit of the dimer comes from crystal symmetry; Construct described in Cordara et al. (2011); also called MOA C215A; MOA-C215A
For the protein B1, the binding result is recorded as “binds”.

B2: Marasmius oreades agglutinin (MOA) variant C215A/H257A (enzyme)
chain: B1 chain with H257A
notes: Marasmius oreades agglutinin (MOA), from the cDNA for wild-type MOA in vector MOApT7-LO; the final model holds residues 2-293, no density for the first methionine; also called MOA C215A/H257A; MOA-C215A/H257A
With B2, the binding result is listed as “binds”.
